Test results published in patent publication US20240270857A1 (CHIA TAI TIANQING PHARMACEUTICAL GROUP, published 2024).
Values belong to the binder of their own block, whether it stands above or below them.

Tests used:
[1] = biological target: T1, Human IL-1Rrp2/IL-1R6 protein, His Tag (ACROBiosystems, IL2-H52H6) (human, UniProt Q9HB29 20-335); assay: BLI (ForteBio Octet), antibody on ProA sensor, 1:1 model
T1 construct: Bought protein; the soluble protein is likely only the extracellular part; also called hIL-36R; human IL36R antigen; not shown: His tag
T1 sequence: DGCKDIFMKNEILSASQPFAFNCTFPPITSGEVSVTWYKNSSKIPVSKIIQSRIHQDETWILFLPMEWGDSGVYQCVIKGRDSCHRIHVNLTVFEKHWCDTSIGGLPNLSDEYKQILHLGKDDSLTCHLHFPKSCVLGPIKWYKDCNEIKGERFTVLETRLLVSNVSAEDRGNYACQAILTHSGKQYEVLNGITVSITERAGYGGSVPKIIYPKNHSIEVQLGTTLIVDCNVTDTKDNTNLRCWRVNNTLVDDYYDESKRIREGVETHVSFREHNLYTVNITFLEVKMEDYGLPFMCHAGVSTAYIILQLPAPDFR
Protocol: The affinity of anti-IL-36R antibodies to CynoIL36R-ECD mFc and human IL-1Rrp2/IL-IR6 protein, His Tag (ACROBiosystems, IL2-H52H6) was measured by a ForteBio molecular interaction instrument. […] And then the biosensor was used to bind CynoIL36R-ECD mFc or human IL-1Rrp2/IL-1R6 protein, His Tag which was diluted by a gradient (the initial concentration was 200 nM, 2-fold gradient dilution), the response signals were detected in real time using a Fortebio molecular interaction instrument (SARTORIUS, octet red 96e), and association and dissociation curves were obtained. After the completion of dissociation in each cycle, the biosensor was regenerated for the next capture; the procedure was repeated until the affinity of the different anti-IL-36R antibodies for IL-36R was determined. The resulting data were analyzed by Fortebio Data Analysis 11.0 software in a 1:1 (Langmuir) binding model to determine kₐ (kₒₙ) and kd (koff) values, and the dissociation constant KD was calculated by KD=kd/kₐ. The detection method essentially followed the manufacturer's recommendations, and more information could be found at www.fortebio.com.
Affinity, binding and blocking assays for humanized antibodies hz72C1-1.1, hz72C1-1.2, hz72C1-1.3, hz72C1-2.1, hz72C1-2.2 and hz72C1-2.3 as well as hz84C4-1.1, hz84C4-1.2, hz84C4-1.3, hz84C4-1.4, hz84C4-1.5, hz84C4-2.1, hz84C4-2.2, hz84C4-2.3, hz84C4-2.4 and hz84C4-2.5 were performed according to the methods of Example 4, Example 5. Example 6, Example 7 and Example 8.

[2] = biological target: T1, Human IL-1Rrp2/IL-1R6 protein, His Tag …; assay: ELISA, plate coated with human IL-1Rrp2/IL-1R6 His Tag, HRP-protein A/G, OD450
Protocol: The binding activity of anti-IL-36R antibodies to IL-36R was analyzed by ELISA using human IL-1Rrp2/IL-1R6 protein, His Tag (ACROBiosystems, IL2-H52H6) and CynoIL36R-ECD mFc (for detection of chimeric and humanized antibodies), and hIL36R-ECD hFc and CynoIL36R-ECD hFc protein (for detection of hybridoma antibodies) as antigens. A 96-well plate (Costar, 9018) was coated with 2 μg/mL antigen at 100 μL/well and incubated overnight at 4° C. After the 96-well plate was washed with a washing buffer (PBS containing 0.05% v/v Tween 20), a blocking buffer (PBS containing 2% bovine serum albumin) was added for blocking at 37° C. for 2 h. After the 96-well plate was washed with the washing buffer, 100 μL of the gradient diluted anti-IL-36R antibody of the present disclosure or the reference antibody BI655130 (the initial concentration of the antibody was 66 nM, 4-fold gradient dilution) was added to each well, and the plate was incubated at room temperature for 1 h. After the 96-well plate was washed with the washing buffer, 100 μL of horseradish peroxidase-conjugated recombinant protein A/G (TheroScientific, 32490) was added to each well, and the plate was incubated at room temperature for 1 h. After the 96-well plate was washed with the washing buffer, 100 μL of a TMB solution (Thermo, 00-4201-56) was added to each well, and the plate was incubated at room temperature for 2 min. Finally, 100 μL of a stop solution (2 N H₂SO₄) was added to each well to stop the reaction. Absorbance was read at 450 nm using a microplate reader (PE, Envision), the resulting data was analyzed using GraphPad Prism, and EC₅₀ was calculated. Binding EC₅₀ of the chimeric anti-IL-36R antibodies to hIL-36R in an ELISA assay is shown in FIG. 1. and binding EC₅₀ of the chimeric anti-IL-36R antibodies to CynoIL-36R in an ELISA assay is shown in FIG. 2. The binding of BI655130 is shown as a control, and the binding of IgG4 is shown as a negative control.

[3] = biological target: T2, human IL-36R overexpressed on 293T-hIL36R-NFκB cells (human, UniProt Q9HB29 20-575); assay: FACS on 293T-hIL36R-NFκB cells, ratio of MFI to background MFI
T2 construct: Entry includes the signal peptide; also called IL1RL2; IL-1Rrp2
T2 sequence: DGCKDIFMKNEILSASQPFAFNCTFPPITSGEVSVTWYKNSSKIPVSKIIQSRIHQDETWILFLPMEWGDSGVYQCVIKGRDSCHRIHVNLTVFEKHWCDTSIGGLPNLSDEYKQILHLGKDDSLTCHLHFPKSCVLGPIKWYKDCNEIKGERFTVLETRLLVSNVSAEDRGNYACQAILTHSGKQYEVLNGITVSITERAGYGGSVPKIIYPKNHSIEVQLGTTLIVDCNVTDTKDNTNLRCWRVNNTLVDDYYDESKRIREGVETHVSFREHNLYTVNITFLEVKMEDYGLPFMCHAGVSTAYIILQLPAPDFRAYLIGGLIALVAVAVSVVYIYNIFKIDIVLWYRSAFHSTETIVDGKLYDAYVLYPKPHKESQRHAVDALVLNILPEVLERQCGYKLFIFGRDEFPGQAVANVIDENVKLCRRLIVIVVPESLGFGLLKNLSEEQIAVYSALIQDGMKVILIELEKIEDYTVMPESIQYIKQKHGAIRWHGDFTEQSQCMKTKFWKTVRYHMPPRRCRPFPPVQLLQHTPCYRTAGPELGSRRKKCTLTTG
Protocol: After the cells was washed with PBS, the cells were resuspended with 100 μL of PBS and then the fluorescence signal was detected using a flow cytometer (BD, Accuri C6). […] The ratio was the ratio of mean fluorescence intensity (MFI) of the experimental group/the background MFI, and the resulting data were analyzed using GraphPad Prism.

- Kd [1]: 0.713 nM
- koff [1]: 5.84e-05 s⁻¹
- kon [1]: 81900 M⁻¹ s⁻¹
- EC50 [2]: 0.348 nM
- EC50 [3]: 1.33 nM
B1: BI655130 (antibody, human IgG1, kappa, L234A L235A)
heavy: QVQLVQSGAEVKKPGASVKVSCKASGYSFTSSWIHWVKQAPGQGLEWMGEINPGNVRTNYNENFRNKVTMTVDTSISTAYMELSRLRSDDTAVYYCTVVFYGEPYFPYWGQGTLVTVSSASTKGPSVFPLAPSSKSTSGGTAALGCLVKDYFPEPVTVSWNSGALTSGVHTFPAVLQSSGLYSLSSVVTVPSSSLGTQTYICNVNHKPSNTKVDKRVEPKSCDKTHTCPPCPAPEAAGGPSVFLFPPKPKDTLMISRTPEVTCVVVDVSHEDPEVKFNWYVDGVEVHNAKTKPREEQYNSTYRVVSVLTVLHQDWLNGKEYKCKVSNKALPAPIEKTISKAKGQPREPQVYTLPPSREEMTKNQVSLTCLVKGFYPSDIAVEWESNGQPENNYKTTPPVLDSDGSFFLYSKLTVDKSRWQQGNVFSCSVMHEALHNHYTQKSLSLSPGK
light: QIVLTQSPGTLSLSPGERATMTCTASSSVSSSYFHWYQQKPGQAPRLWIYRTSRLASGVPDRFSGSGSGTDFTLTISRLEPEDAATYYCHQFHRSPLTFGAGTKLEIKRTVAAPSVFIFPPSDEQLKSGTASVVCLLNNFYPREAKVQWKVDNALQSGNSQESVTEQDSKDSTYSLSSTLTLSKADYEKHKVYACEVTHQGLSSPVTKSFNRGEC
notes: also called Spesolimab

- EC50 [3]: 0.886 nM
B2: chimeric 84C4 antibody (antibody, human IgG4 S228P, kappa)
heavy: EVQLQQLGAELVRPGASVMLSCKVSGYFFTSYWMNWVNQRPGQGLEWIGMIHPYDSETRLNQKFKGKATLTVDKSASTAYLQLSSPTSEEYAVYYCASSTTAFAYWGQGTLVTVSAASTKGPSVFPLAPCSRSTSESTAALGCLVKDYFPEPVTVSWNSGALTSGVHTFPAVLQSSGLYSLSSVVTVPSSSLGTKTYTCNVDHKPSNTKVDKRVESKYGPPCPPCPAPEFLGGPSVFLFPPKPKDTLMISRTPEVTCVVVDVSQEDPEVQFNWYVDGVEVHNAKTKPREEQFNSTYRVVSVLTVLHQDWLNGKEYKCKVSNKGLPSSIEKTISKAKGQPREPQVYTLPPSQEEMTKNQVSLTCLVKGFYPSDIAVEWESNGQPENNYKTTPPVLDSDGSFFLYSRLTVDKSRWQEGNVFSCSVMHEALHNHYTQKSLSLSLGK
light: DILMTQSPSSLSASLGERVSLTCRASQDIGNALNWLQQAPDGTIKRLIYATSSLDPGVPKRFSGSRSGSDYSLTISSLASEDFVYYYCLQYASSPYTFGGGTKLEIKRTVAAPSVFIFPPSDEQLKSGTASVVCLLNNFYPREAKVQWKVDNALQSGNSQESVTEQDSKDSTYSLSSTLTLSKADYEKHKVYACEVTHQGLSSPVTKSFNRGEC
notes: Mouse variable regions on human IgG4 / kappa; also called xi84C4

- EC50 [3]: 2.52 nM
B3: chimeric 72C1 antibody (antibody, human IgG4 S228P, kappa)
heavy: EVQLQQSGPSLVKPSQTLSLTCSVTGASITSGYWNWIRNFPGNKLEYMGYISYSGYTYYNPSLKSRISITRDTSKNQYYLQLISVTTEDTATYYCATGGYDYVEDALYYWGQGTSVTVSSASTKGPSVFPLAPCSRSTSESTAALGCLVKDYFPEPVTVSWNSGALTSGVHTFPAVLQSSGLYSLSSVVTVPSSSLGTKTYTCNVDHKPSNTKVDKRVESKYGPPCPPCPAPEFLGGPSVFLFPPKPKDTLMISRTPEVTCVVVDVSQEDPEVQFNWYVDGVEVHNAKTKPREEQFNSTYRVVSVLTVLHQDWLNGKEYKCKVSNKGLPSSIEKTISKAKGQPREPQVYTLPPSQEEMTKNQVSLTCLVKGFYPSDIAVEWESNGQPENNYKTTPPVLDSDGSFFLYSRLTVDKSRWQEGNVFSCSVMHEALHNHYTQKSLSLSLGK
light: EILLTQSPAIMSATLGEKVTMSCRASSNVRYMYWYQLKSGASPKLWIYLTSNLASGVPARFSGSGSGTSYSLTISSVEAEDAATYFCQQFTTSPYTFGGGTKLEIKRTVAAPSVFIFPPSDEQLKSGTASVVCLLNNFYPREAKVQWKVDNALQSGNSQESVTEQDSKDSTYSLSSTLTLSKADYEKHKVYACEVTHQGLSSPVTKSFNRGEC
notes: Mouse variable regions on human IgG4 / kappa; also called xi72C1
